Test results reported in patent publication US20260226143A1 (OTHAIR PROTHENA, published 2026).

B1: h2731 (antibody, human IgG1, kappa, V domains shown)
VH: EVQLLESGGGLVQPGGSLRLSCAASGFTFSNYGMSWVRQAPGKGLEWVASIRSGSGRTYYSDNVKGRFTISRDNSKNTLYLQMNSLRAEDTAVYYCVRYDHYSGSSDYWGQGTLVTVSS
VL: DVVMTQSPLSLPVTLGEPASISCKSSQSLLDYDGKTYLNWLLQKPGQSPQRLIYRVTNRDTGVPDRFSGSGSGTDFTLKISRVEAEDVGVYYCWQGTHFPRSFGQGTKVEIKR
notes: Heavy chain with or without the C-terminal lysine
B2: h2831 (antibody, V domains shown)
VH: EVQLLESGGGLVQPGGSLRLSCAASGFTFSNFGMSWVRQAPGKGLEWVASVRSGSGRTYYSDNVKGRFTISRDNSKNTLYLQMNSLRAEDTAVYYCVRYDHYSGTSDYWGQGTLVTVSS
VL: DVVMTQSPLSLPVTLGEPASISCKSSQSLLDYDGKTYLNWLLQKPGQSPQRLIYRVTNRDTGVPDRFSGSGSGTDFTLKISRVEAEDVGVYYCWQGTHFPRSFGQGTKVEIK
notes: Humanized IgG; only variable domains tied to the name; also called PB-0575
B3: h2931 (antibody, V domains shown)
VH: EVQLLESGGGLVQPGGSLRLSCAASGFTFSNFGMSWVRQAPGKGLEWVASVRSGSGRTYYSDNVKGRFTISRDNSKNTLYLQMNSLRAEDTAVYYCVRYDHYTGTSDYWGQGTLVTVSS
VL: DVVMTQSPLSLPVTLGEPASISCKSSQSLLDYDGKTYLNWLLQKPGQSPQRLIYRVTNRDTGVPDRFSGSGSGTDFTLKISRVEAEDVGVYYCWQGTHFPRSFGQGTKVEIK
notes: Humanized IgG; only variable domains tied to the name; also called PB-0576
B4: h2726 (antibody, V domains shown)
VH: EVQLLESGGGLVQPGGSLRLSCAASGFTFSNYGMSWVRQAPGKGLEWVASIRSGSGRTYYSDNVKGRFTISRDNSKNTLYLQMNSLRAEDTAVYYCVRYDHYSGSSDYWGQGTLVTVSS
VL: DVVMTQSPLSLPVTPGEPASISCKSSQSLLDYDGKTYLNWLLQKPGQSPQRLIYKVSNRDSGVPDRFSGSGSGTDFTLKISRVEAEDVGVYYCWQGTHFPRTFGQGTKVEIK
notes: Humanized IgG; also called PB-0573

How the values were obtained:
[1] = target: T1, recombinant Aβ1-42 fibrils (human); test: direct ELISA on plate-coated Aβ fibrils, antibody titrated
T1 construct: Fibrils made from HFIP-treated Aβ1-42 (DMSO, 10 mM HCl, 37 C, 24 h; pellet resuspended and sonicated); also called fibril Aβ42; fibril Aβ
Experimental: (§1) Plates were blocked 1% BSA/PBS for 1 hour. […] Plates were washed four times with TBS/Tween 20 and 100 μl of goat anti Human IgG HRP (Jackson ImmunnoResearch Laboratories, Inc, West Grove, PA or Invitrogen, Carlsbad, CA) at 1/5000 dilution was added to each well and incubated 1 hour at room temperature. Plates were wash six times in TBS/Tween 20, and Thermo Fisher o-phenylenediamine dihydrochloride (OPD) tablets and ThermoFisher substrate buffer were prepared per manufacturer's instructions. 100 μl of substrate was added and incubated 15 min. Reaction was stopped with 50 μl H₂SO₄. Plates were read at 490 nm on a molecular devices spectromax. FIG. 9A, and FIG. 21. For FIG. 21, curves and resulting EC₅₀ estimations represent nonlinear three-parameter least squares fit of the data (data shown in Table 7).

[2] = target: soluble Aβ oligomers (human, partly biotinylated (unlabeled, biotinylated or 9:1 unlabeled:biotinylated preparations)); test: cell-based or functional assay
[3] = target: T2, aggregated Aβ42 (heterogeneous Aβ 42 aggregate mixture) (human); test: competition ELISA, plate coated with aggregated Aβ42; competitor biotinylated hBP
T2 construct: Aβ 42 vortexed in water and kept on a nutator for 48 h at room temperature, then coated on plates; also called Aβ aggregates; heterogeneous aggregated Aβ42 species
Experimental: One mg of Aβ 42 was added to 1 ml of diH2O and was vigorously vortexed and placed on a nutator for 48 hours at room temperature. Plates were coated with 0.5 mg/ml of the heterogeneous Aβ 42 aggregate mixture and blocked, e.g., with 1% BSA/PBS. […] 100 ul of GE Streptavidin HRP diluted 1/10,000 was then added and incubated for 30 minutes. Plates were washed six times with TTBS. Thermo Fisher o-phenylenediamine dihydrochloride (OPD) substrate was prepared fresh per manufacturers direction, and 100 μl per well was added. The reaction was incubated for 15 minutes and the reaction stopped with 50 ul 2N H₂SO₄. […] For FIG. 20A and FIG. 20B, curves and resulting IC₅₀ estimations represent nonlinear three-parameter least squares fit of data. Individual points are the average of triplicate samples (coefficient of variation <20%).

[4] = target: T1, recombinant Aβ1-42 fibrils; test: direct ELISA on plate-coated Aβ fibrils; the low end falls to h2831 by the EC50 values of Table 7
Experimental: as §1

[5] = target: T1, recombinant Aβ1-42 fibrils; test: direct ELISA, fibril Abeta plate coat titrated, antibody held constant at 2 ug/ml; unit from the axis 'log ng/ml Abeta' [right panel]
Experimental: Plates were blocked 1% BSA/PBS 1 hour. Antibodies at 2 μg/ml in 0.1% BSA/PBS 0.1% Tween 20 were added in duplicate to the appropriate wells and incubated for 2 hrs at room temperature. Plates were washed 4× with TBS/Tween 20 and then 100 μl of Jackson Goat anti Human IgG HRP 1/5000 dilution was added to each well and incubated 1 hour at room temperature. Plates were wash six times in TBS/Tween 20, and Thermo Fisher o-phenylenediamine dihydrochloride (OPD) tablets and Thermofisher substrate buffer were prepared per manufacturer's instructions. 100 μl of substrate was and incubated 15 min. Reaction was stopped with 50 μl H₂SO₄. Plates were read at 490 nm on a molecular devices spectromax. FIG. 9B, right panel.

[6] = target: T1, recombinant Aβ1-42 fibrils; test: direct ELISA on plate-coated Aβ fibrils; the high end falls to h2726 by the EC50 values of Table 7
Experimental: as §1

T1 sequence (peptide, as listed by the source): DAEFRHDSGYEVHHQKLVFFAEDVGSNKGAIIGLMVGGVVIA
Sequence of soluble Aβ oligomers (human, partly biotinylated (unlabeled, biotinylated or 9:1 unlabeled:biotinylated preparations)) (peptide, as listed by the source): as above
T2 sequence (peptide, as listed by the source): as above

Binder	EC50 [1] [µg/mL]	IC50 of the reduction of Abeta spots per neuron (% Abeta control, normalized to untreated Abeta) [2] [µg/mL]	IC50 [3] [µg/mL]	fold lower estimated EC50 than aducanumab [4] [fold]	IC50 (as headed in the table; half-maximal concentration of the Abeta fibril coat) [5] [µg/mL]	Total Area (area under the curve of % Abeta control against mAb concentration) [2]	fold lower estimated EC50 than aducanumab [6] [fold]
B1	0.0367	0.47	5.02				
B2	0.0489	0.924	9.91	15 to 20	0.412	6500	
B3	0.0449	0.627	6.9		0.335	8480	
B4	0.0359	1.67	9.05		0.387	9070	15 to 20
